{"source": "paper PMC7423924", "about": "“A fluorogenic cyclic peptide for imaging and quantification of drug-induced apoptosis” (Nature Communications, 2020)", "molecules": {"B1": {"name": "Annexin V: fluorescently-labeled (AF647) annexin V, PS-binding protein (protein, UniProt P08758 2-320, looked up)", "Annexin A5": "AQVLRGTVTDFPGFDERADAETLRKAMKGLGTDEESILTLLTSRSNAQRQEISAAFKTLFGRDLLDDLKSELTGKFEKLIVALMKPSRLYDAYELKHALKGAGTNEKVLTEIIASRTPEELRAIKQVYEEEYGSSLEDDVVGDTSGYYQRMLVVLLQANRDPDAGIDEAQVEQDAQALFQAGELKWGTDEEKFITIFGTRSVSHLRKVFDKYMTISGFQIEETIDRETSGNLEQLLLAVVKSIRSIPAYLAETLYYAMKGAGTDDHTLIRVMVSRSEIDLFNIRKEFRKNFATSLYSMIKGDTSGDYKKALLLLCGEDD", "modifications": "AF647 label"}}, "key": {"[1]": {"system": "primary airway epithelial cells", "assay": "Flow cytometry staining before and after induction of apoptosis, epithelial", "type": "cell-based, human", "conditions": "single replicates, listed as Ann V", "procedure": "(§1) Fig. 2 Apo-15 binds to apoptotic cells of different origin in multiple environments. a Representative fluorescence confocal microscopy images (from three independent experiments) human apoptotic (yellow arrows) and viable (white arrows) cells from different lineages: BL-2 (lymphoid), neutrophils (myeloid), and primary airway epithelial cells (epithelial). Cells were incubated with Apo-15 (100 nM, green), AF647-Annexin V (5 nM, red), and Hoechst 33342 (7 μM, blue) for 10 min and imaged under a fluorescence confocal microscope (λexc.: 405, 488, 633 nm: λem.: 450, 525, 670 nm). Scale bars: 10 µm. b Divalent cation-independent binding of Apo-15 to apoptotic cells of different origin (top plots: lymphoid cells, bottom plots: myeloid cells). Mixtures of apoptotic (highlighted in green dots) and viable cells (highlighted in black dots) were stained with AF647-Annexin V (25 nM) and Apo-15 (100 nM) in the presence of 2 mM CaCl2 (left) or 2.5 mM EDTA (right). Representative histograms showing Apo-15 binding (x-axis) vs AF647-Annexin V binding (y-axis) acquired on 5L LSR flow cytometer (n = 5). c Cells were sorted on their Apo-15 positivity (green populations in panel b) or negativity (black populations in panel b). Gating strategy in Supplementary Fig. 7. Morphological analysis (four independent images from two independent experiments) of cytocentrifuge preparations of Apo-15-positive and Apo-15-negative cells under brightfield microscopy (scale bar: 10 µm). d Quantification of fluorescence staining of neutrophils (myeloid, n ≥ 5), BL-2 cells (lymphoid, n ≥ 3) and primary airway epithelial cells (epithelial, n = 5) before and after induction of apoptosis and upon treatment with Apo-15 and AF647-Annexin V. Data acquired on 5 L LSR flow cytometer and presented as mean values ± SEM. P values obtained from two-tailed t tests. Source data (in d) are provided as a Source data file. […]\n(§2) All apopeptides were reconstituted at 5 mM in DMSO. […] Fluorescence emission was measured on a 5 L LSR flow cytometer (BD). […]"}, "BL-2 cells (lymphoid)": {"system": "BL-2 cells (lymphoid)", "assay": "Flow cytometry staining before and after induction of apoptosis, BL-2", "type": "cell-based, human", "conditions": "single replicates, listed as Ann V", "procedure": "as §1, §2"}}, "note": "Where “and” joins values, the source holds several entries; their conditions need not be identical. Identical values can stand only once.", "data": [{"molecule": "B1", "values": [{"measurement": "Stained cells (flow cytometry)", "setting": "[1]; epithelial cells untreated (UNT)", "value": "7.0% and 6.2% and 7.1% and 5.9% and 13.0%"}, {"measurement": "Stained cells (flow cytometry)", "setting": "[1]; epithelial cells, staurosporine (ST, 1 µM 6 h)", "value": "14.1% and 17.9% and 25.5% and 29.1% and 22.0%"}, {"measurement": "Stained cells (flow cytometry)", "setting": "[1]; epithelial cells, staurosporine, EDTA", "value": "0.024% and 0.1% and 0.37% and 3.0% and 2.0%"}, {"measurement": "Stained cells (flow cytometry)", "setting": "BL-2 cells (lymphoid); BL-2 0h UV", "value": "25.4% and 28.9% and 10.3%"}, {"measurement": "Stained cells (flow cytometry)", "setting": "BL-2 cells (lymphoid); BL-2 3h UV, EDTA", "value": "1.4% and 1.1% and 2.6%"}, {"measurement": "Stained cells (flow cytometry)", "setting": "BL-2 cells (lymphoid); BL-2 3h UV", "value": "86.9% and 45.3% and 46.5% and 34.9%"}]}]}
